Test results from PMC13483476.

How the values were obtained:
[1] = target: JR-FL.v6 V3 peptide (HIV-1 clade B isolate JR-FL); assay: SPR
[2] = target: JR-FL.v6 V3 peptide (HIV-1 clade B isolate JR-FL); assay: differential scanning fluorimetry

19b antigen-binding fragment (Fab)
Kd [1]: 1.74 nM | increase of the transition temperature of the Fab when bound to the peptide [2]: 6.3 °C
